Read-outs that look alike come from different tables or passages of the source.
What was measured:
[1] = target: MBL associated serine protease 2 (MASP2) (human) (UniProt O00187); assay: cell-based or functional assay
[2] = target: MBL associated serine protease 2 (MASP2) (human) (UniProt O00187); assay: cell-based or functional assay; remark: listed apart in the source

MBL associated serine protease 2 (MASP2) (human), sequence (O00187 16-686 limits assumed): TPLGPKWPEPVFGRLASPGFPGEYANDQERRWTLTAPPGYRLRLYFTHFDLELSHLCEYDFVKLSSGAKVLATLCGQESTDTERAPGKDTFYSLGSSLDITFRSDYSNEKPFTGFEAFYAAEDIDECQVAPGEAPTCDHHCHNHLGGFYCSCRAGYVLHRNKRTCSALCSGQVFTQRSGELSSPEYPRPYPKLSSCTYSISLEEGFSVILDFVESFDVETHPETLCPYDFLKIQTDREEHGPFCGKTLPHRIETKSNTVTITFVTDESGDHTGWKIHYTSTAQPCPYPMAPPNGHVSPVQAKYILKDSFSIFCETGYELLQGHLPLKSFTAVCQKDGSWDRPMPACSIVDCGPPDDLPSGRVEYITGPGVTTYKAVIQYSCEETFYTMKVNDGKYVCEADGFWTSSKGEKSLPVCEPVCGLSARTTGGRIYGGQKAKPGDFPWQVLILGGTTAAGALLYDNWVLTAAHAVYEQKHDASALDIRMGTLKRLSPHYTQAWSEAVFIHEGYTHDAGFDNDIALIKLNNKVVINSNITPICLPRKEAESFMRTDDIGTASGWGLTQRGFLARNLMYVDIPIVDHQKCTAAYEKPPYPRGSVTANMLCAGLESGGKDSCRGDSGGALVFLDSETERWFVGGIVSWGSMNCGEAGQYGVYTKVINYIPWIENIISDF
affinity purified MBL-MASP complex, sequence (P11226 21-248, one chain of several): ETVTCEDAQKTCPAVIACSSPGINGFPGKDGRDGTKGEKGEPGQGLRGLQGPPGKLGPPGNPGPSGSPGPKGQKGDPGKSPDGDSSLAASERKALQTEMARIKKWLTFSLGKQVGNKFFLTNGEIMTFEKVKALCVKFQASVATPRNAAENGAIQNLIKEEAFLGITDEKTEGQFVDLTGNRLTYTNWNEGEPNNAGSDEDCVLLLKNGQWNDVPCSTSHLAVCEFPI

“affinity purified MBL-MASP complex (from UniProt P11226 21-248)” gave a C4 deposition at MBL 0.471 ug/mL [1] of 0.054 U/ul, a C4 deposition at MBL 1.065 ug/mL [1] of 0.057 U/ul and a C4 deposition at MBL 2.237 ug/mL [1] of 0.104 U/ul. For the same substance, the C4 deposition at MBL 2.802 ug/mL [1] was 0.114 U/ul, the C4 deposition at MBL 4.011 ug/mL [1] was 0.138 U/ul and the C4 deposition at MBL 4.681 ug/mL [1] was 0.171 U/ul. The C4 deposition at MBL 5.382 ug/mL [1] was 0.159 U/ul, the C4 deposition at MBL 6.814 ug/mL [1] was 0.19 U/ul and the C4 deposition at MBL 7.967 ug/mL [1] was 0.203 U/ul. The C4 deposition at MBL 10.998 ug/mL [1] was 0.22 U/ul, the C4 deposition at MBL 40 ug/mL [1] was 0.292 U/ul and the C4 deposition at MBL 50 ug/mL [1] was 0.308 U/ul. For the same substance, the C4 deposition at MBL 0.624 ug/mL [2] was 0.05 U/ul, the C4 deposition at MBL 1.032 ug/mL [2] was 0.068 U/ul and the C4 deposition at MBL 2.081 ug/mL [2] was 0.103 U/ul. It also gave a C4 deposition at MBL 3.3 ug/mL [2] of 0.197 U/ul, a C4 deposition at MBL 4.08 ug/mL [2] of 0.138 U/ul and a C4 deposition at MBL 4.42 ug/mL [2] of 0.168 U/ul. It also gave a C4 deposition at MBL 5.95 ug/mL [2] of 0.172 U/ul, a C4 deposition at MBL 6.94 ug/mL [2] of 0.197 U/ul and a C4 deposition at MBL 11.41 ug/mL [2] of 0.204 U/ul. The C4 deposition at MBL 15 ug/mL [2] was 0.246 U/ul, the C4 deposition at MBL 25 µg/mL (previous assay, same batch) [2] was 0.27 U/µl and the C4 deposition at MBL 40 ug/mL [2] was 0.321 U/ul. The C4 deposition at MBL 50 ug/mL [2] was 0.289 U/ul.

Reference: patent US20050037949A1, “Mannose binding lectin and uses thereof” (priority 2002, published 2005)
